target: T1, FcγRIIIa (human, UniProt P08637 17-208); assay: SPR (Biacore);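 further: antibody variants captured on an SPR sensor chip, with FcγRIIIa passed over as analyte in HBS-EP+ buffer at 25 °C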
T1 construct: extracellular domain; also called 3a; FcγRIIIa extracellular domain
T1 sequence (P08637 other isoform, or with tags, fused parts or gaps): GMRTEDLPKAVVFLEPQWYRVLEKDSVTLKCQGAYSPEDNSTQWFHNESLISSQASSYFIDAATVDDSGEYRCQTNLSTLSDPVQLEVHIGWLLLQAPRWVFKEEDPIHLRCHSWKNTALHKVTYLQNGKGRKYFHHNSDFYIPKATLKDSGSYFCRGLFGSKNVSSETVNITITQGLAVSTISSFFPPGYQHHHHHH

| Binder | He/Con 3a |
| --- | --- |
| GpH7-A5/GpH7-B3 variant L328_13S/GpL16-k0 (antibody, human IgG1, kappa, copies: 1 + 1 + 2) heavy 1: not shown heavy 2: not shown light: DIVMTQSPLSLPVTPGEPASISCQASESLVHSNRNTYLHWYLQKPGQSPQLLIYKVSNRFSGVPDRFSGSGSGTDFTLKISRVEAEDVGVYYCSQNTHVPPTFGQGTKVEIERTVAAPSVFIFPPSDEQLKSGTASVVCLLNNFYPREAKVQWKVDNALQSGNSQESVTEQDSKDSTYSLSSTLTLSKADYEKHKVYACEVTHQGLSSPVTKSFNRGEC | 73.7 % of GpH7-A5/GpH7-B3/GpL16-k0 |
| GpH7-A5/GpH7-B3 variant L235_14T/GpL16-k0 (antibody, human IgG1, kappa, copies: 1 + 1 + 2) heavy 1: not shown heavy 2: not shown light: DIVMTQSPLSLPVTPGEPASISCQASESLVHSNRNTYLHWYLQKPGQSPQLLIYKVSNRFSGVPDRFSGSGSGTDFTLKISRVEAEDVGVYYCSQNTHVPPTFGQGTKVEIERTVAAPSVFIFPPSDEQLKSGTASVVCLLNNFYPREAKVQWKVDNALQSGNSQESVTEQDSKDSTYSLSSTLTLSKADYEKHKVYACEVTHQGLSSPVTKSFNRGEC | 73.2 % of GpH7-A5/GpH7-B3/GpL16-k0 |
| GpH7-A5/GpH7-B3 variant L328_19Q/GpL16-k0 (antibody, human IgG1, kappa, copies: 1 + 1 + 2) heavy 1: not shown heavy 2: not shown light: DIVMTQSPLSLPVTPGEPASISCQASESLVHSNRNTYLHWYLQKPGQSPQLLIYKVSNRFSGVPDRFSGSGSGTDFTLKISRVEAEDVGVYYCSQNTHVPPTFGQGTKVEIERTVAAPSVFIFPPSDEQLKSGTASVVCLLNNFYPREAKVQWKVDNALQSGNSQESVTEQDSKDSTYSLSSTLTLSKADYEKHKVYACEVTHQGLSSPVTKSFNRGEC | 83.4 % of GpH7-A5/GpH7-B3/GpL16-k0 |
| GpH7-A5/GpH7-B3 variant L328_07I/GpL16-k0 (antibody, human IgG1, kappa, copies: 1 + 1 + 2) heavy 1: not shown heavy 2: not shown light: DIVMTQSPLSLPVTPGEPASISCQASESLVHSNRNTYLHWYLQKPGQSPQLLIYKVSNRFSGVPDRFSGSGSGTDFTLKISRVEAEDVGVYYCSQNTHVPPTFGQGTKVEIERTVAAPSVFIFPPSDEQLKSGTASVVCLLNNFYPREAKVQWKVDNALQSGNSQESVTEQDSKDSTYSLSSTLTLSKADYEKHKVYACEVTHQGLSSPVTKSFNRGEC | 86.4 % of GpH7-A5/GpH7-B3/GpL16-k0 |
| GpH7-A5/GpH7-B3 variant L328_04F/GpL16-k0 (antibody, human IgG1, kappa, copies: 1 + 1 + 2) heavy 1: not shown heavy 2: not shown light: DIVMTQSPLSLPVTPGEPASISCQASESLVHSNRNTYLHWYLQKPGQSPQLLIYKVSNRFSGVPDRFSGSGSGTDFTLKISRVEAEDVGVYYCSQNTHVPPTFGQGTKVEIERTVAAPSVFIFPPSDEQLKSGTASVVCLLNNFYPREAKVQWKVDNALQSGNSQESVTEQDSKDSTYSLSSTLTLSKADYEKHKVYACEVTHQGLSSPVTKSFNRGEC | 81.5 % of GpH7-A5/GpH7-B3/GpL16-k0 |
| GpH7-A5/GpH7-B3 variant L235_20W/GpL16-k0 (antibody, human IgG1, kappa, copies: 1 + 1 + 2) heavy 1: not shown heavy 2: not shown light: DIVMTQSPLSLPVTPGEPASISCQASESLVHSNRNTYLHWYLQKPGQSPQLLIYKVSNRFSGVPDRFSGSGSGTDFTLKISRVEAEDVGVYYCSQNTHVPPTFGQGTKVEIERTVAAPSVFIFPPSDEQLKSGTASVVCLLNNFYPREAKVQWKVDNALQSGNSQESVTEQDSKDSTYSLSSTLTLSKADYEKHKVYACEVTHQGLSSPVTKSFNRGEC | 73.8 % of GpH7-A5/GpH7-B3/GpL16-k0 |
| GpH7-A5/GpH7-B3 variant L235_16H/GpL16-k0 (antibody, human IgG1, kappa, copies: 1 + 1 + 2) heavy 1: not shown heavy 2: not shown light: DIVMTQSPLSLPVTPGEPASISCQASESLVHSNRNTYLHWYLQKPGQSPQLLIYKVSNRFSGVPDRFSGSGSGTDFTLKISRVEAEDVGVYYCSQNTHVPPTFGQGTKVEIERTVAAPSVFIFPPSDEQLKSGTASVVCLLNNFYPREAKVQWKVDNALQSGNSQESVTEQDSKDSTYSLSSTLTLSKADYEKHKVYACEVTHQGLSSPVTKSFNRGEC | 57.1 % of GpH7-A5/GpH7-B3/GpL16-k0 |
| GpH7-A5/GpH7-B3 variant L235_18N/GpL16-k0 (antibody, human IgG1, kappa, copies: 1 + 1 + 2) heavy 1: not shown heavy 2: not shown light: DIVMTQSPLSLPVTPGEPASISCQASESLVHSNRNTYLHWYLQKPGQSPQLLIYKVSNRFSGVPDRFSGSGSGTDFTLKISRVEAEDVGVYYCSQNTHVPPTFGQGTKVEIERTVAAPSVFIFPPSDEQLKSGTASVVCLLNNFYPREAKVQWKVDNALQSGNSQESVTEQDSKDSTYSLSSTLTLSKADYEKHKVYACEVTHQGLSSPVTKSFNRGEC | 65 % of GpH7-A5/GpH7-B3/GpL16-k0 |
| GpH7-A5/GpH7-B3 variant L235_13S/GpL16-k0 (antibody, human IgG1, kappa, copies: 1 + 1 + 2) heavy 1: not shown heavy 2: not shown light: DIVMTQSPLSLPVTPGEPASISCQASESLVHSNRNTYLHWYLQKPGQSPQLLIYKVSNRFSGVPDRFSGSGSGTDFTLKISRVEAEDVGVYYCSQNTHVPPTFGQGTKVEIERTVAAPSVFIFPPSDEQLKSGTASVVCLLNNFYPREAKVQWKVDNALQSGNSQESVTEQDSKDSTYSLSSTLTLSKADYEKHKVYACEVTHQGLSSPVTKSFNRGEC | 67.2 % of GpH7-A5/GpH7-B3/GpL16-k0 |
| GpH7-A5/GpH7-B3 variant L328_06M/GpL16-k0 (antibody, human IgG1, kappa, copies: 1 + 1 + 2) heavy 1: not shown heavy 2: not shown light: DIVMTQSPLSLPVTPGEPASISCQASESLVHSNRNTYLHWYLQKPGQSPQLLIYKVSNRFSGVPDRFSGSGSGTDFTLKISRVEAEDVGVYYCSQNTHVPPTFGQGTKVEIERTVAAPSVFIFPPSDEQLKSGTASVVCLLNNFYPREAKVQWKVDNALQSGNSQESVTEQDSKDSTYSLSSTLTLSKADYEKHKVYACEVTHQGLSSPVTKSFNRGEC | 80.8 % of GpH7-A5/GpH7-B3/GpL16-k0 |
| GpH7-A5/GpH7-B3 variant L235_15Y/GpL16-k0 (antibody, human IgG1, kappa, copies: 1 + 1 + 2) heavy 1: not shown heavy 2: not shown light: DIVMTQSPLSLPVTPGEPASISCQASESLVHSNRNTYLHWYLQKPGQSPQLLIYKVSNRFSGVPDRFSGSGSGTDFTLKISRVEAEDVGVYYCSQNTHVPPTFGQGTKVEIERTVAAPSVFIFPPSDEQLKSGTASVVCLLNNFYPREAKVQWKVDNALQSGNSQESVTEQDSKDSTYSLSSTLTLSKADYEKHKVYACEVTHQGLSSPVTKSFNRGEC | 77.8 % of GpH7-A5/GpH7-B3/GpL16-k0 |
| GpH7-A5/GpH7-B3 variant L328_03V/GpL16-k0 (antibody, human IgG1, kappa, copies: 1 + 1 + 2) heavy 1: not shown heavy 2: not shown light: DIVMTQSPLSLPVTPGEPASISCQASESLVHSNRNTYLHWYLQKPGQSPQLLIYKVSNRFSGVPDRFSGSGSGTDFTLKISRVEAEDVGVYYCSQNTHVPPTFGQGTKVEIERTVAAPSVFIFPPSDEQLKSGTASVVCLLNNFYPREAKVQWKVDNALQSGNSQESVTEQDSKDSTYSLSSTLTLSKADYEKHKVYACEVTHQGLSSPVTKSFNRGEC | 80.9 % of GpH7-A5/GpH7-B3/GpL16-k0 |

— patent US20260167699A1 (Chugai, published 2026)
